# Data: the NTF2 design screens of Basanta et al. (2020)
# Experiment: protease stability score; higher = more stable; yeast display proteolysis, trypsin and chymotrypsin;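 also: relative to predicted unfolded state with 0 unfolded-like and 1 meaning tenfold more protease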
row,Sequence,protease stability score
1,NEEKRDSDILRRHLLEVLDTGDWDRMHELADPNAKTHFNGRDHHGREDMTHLFRELGVKHQELRSVHLQGNYVEITIHVSVDGRHVHLRFFMVKIDGKWRIRHMEIEWL,1.14
2,SEETEHIQKVMKDYIELVLTGDEEKWIHLADPHTRLILLFDGKEIHTHGWDRLIKVWQRIMEELGVDKVEIRMERVRSYGDKAESDVESRYNGRTHETEVTILVIDGRIKMVEVRFH,1.14
3,HEEEESFKNALEMWIRTVKTGDEKLESDLLDPDARLIFNGQEFHGRELVKKILIDWRKELRVRDFELRDFHIQGDKIYIDGTMFVEINGQTETRKIVIVFVKVNGRWLIHQVTFH,2.24
4,HEEKELVNRSVELSYRVLKTGDEHTLEELLDPDAKTRLNINGKNEKLVGRENVLHIVTWFLDFLGIKHVELRDVRYVGDKVHIDMQIDVNGRHSRWHLIAEKIDGRWFMHSIQVEVH,0.18
5,DEDHKEVKHILRMWMENLYTGDEELNNRLLDPNARWEVNGRDIHGRELILKVLSNEYTEWRMKHIKIDHVENVNGQVHVDITIKYDINGQEINLRTHIRIYIINGKIHEIHISIH,0.576
6,DEEDRQAEHIARLVIEELLTGDEESFSHLVDPDTRSEFDGKEFIGREWFNKWLRRILEEIRFHINPTEIRYQGDKAIVHGRLHLHYNGQDVHITVHYKLIVINGRHKRIKEERS,1.3
7,SEEDEIVRKLSEIMIHSLETGDFDSFRELADPDYRIETEDHEIVGMEEFERWLKEHLDRFDYDKWEYHSLHIYGDKVKMDIELHLDIDGVKRTHDVYIIIRKYNGQWIVESFMFK,-0.384
8,DEDHELVEKFLRQMIFAQITGDWRFMMHLADPHVRYEVGDKHYHGREDMERVFREWRVNSIRIEHIRIIGDKAETHQDEDGHIDGRRIELHVRLILLKVDGRWIVHNSHII,1.37
9,SDRRELLERLAELFLHWWLTGDWKAISDNADPNVRLDIQQGDKHIHDIGRERTEEVLRKIFERFKNLKIEIKRFDMQGDKLHVDSRVTFDGVEFNMEIHNLVVDGRIREIYVHLH,1.54
10,DEDEEIRTRSLRLLIQLLITGDEEIFKQLFDPHALVIINGRRHHGWTLLEEYWRRLGADVIKSVELENTDDVNGVLILDMRLHMHINGRDDSQRIHIIATKINGKWRNESIVLS,1.22
11,DEDQKAATRFTELLVRLLFTGDEEMWLQLADPRMILDFENHSEHGMKLVVKLLHETIERRGMRIDDMHHTHIEFQGEWVRVHVRVHERIGDKRISVEVEYKSLKVNGRWILHEIHIH,0.372
12,SRKDEHTHHLLHLFWEIFMTGDEERWTQLLDPNMRTEIDGKDLHGREDAIRFMIERLRQLGFDHMRLHHLENQGEKAHIDGTLEVGDKLVRVHFSTKIVNGRIKELTIKFH,1.02
13,LEDEEMLEEVDKRLVHAFLTGDFNTIERMLDPDTKVRINGRESIGRENVAKVLHEERRHMRLDIIEIRRIRLVGEFIHSDTRLDININGRRIKFTFRIIVLKINGQWIVESLEID,2.06
14,DEWLEIAHRFVEELVRSLLTGDEDTLTKLIDPNVRLNINGQEVVGMTEVNRAWHELRIEDEHIRRIDVQGDYVRIHSQRRGEVNGVHTEFEVVIIISKFDGRWVIKSEHVH,1.24
15,DEDTRIMEELLELTMEHVKTGDESSFRKLADPNVRMEYNGVEIHGREEASELFLEEMERIKNLTLRIKRLHIQGDKVIIYEEYEYGEKSWTVTYEAYKINGRWLMESIRFG,1.13
16,DETEEVMERVIQMLAHATHTGDWKDIRRLMDPNVKININGREIIGREELIRYLRELRETYHHFELKHVEVQGDKIIVHGRTLIRIEIGDKEIHLDSDVRYILWKVDGRWIMESIHIV,2.18
17,TEEEKIFKKLMHLILNAFLTGDEELLHEYVDPHARVRVGDKEFHGRENIIHALRMLFHHLGIDHIEIDKVDVFNGRMEVHGTFHFDGKNVESILRFDVYNGRLKKEEIEWR,0.726
18,DEHEELLEHIIRLWLKYIHTGDFRNWMKYADPNAKWRTENHEHHGREEIARDLHEFNKKLGMEFRIDLRHFEIQGDKVRMHTEYILHIGDYTERRETEVTVIIVDGKIKSIRLLVR,1.67
19,DEKEKESEDLAEIILKLWATGDEEIFEHLLDPNVWMIDEDEVFHGMEKVSEFLLRLREKLGVDHFRVHHIEIQGDKVHMDIRLEVNGKILKTHIRVIIINGRIHTVEIRIH,2.37
20,DSLEDIFKLAVDDLEFLYETGDEEMTSQMADPNVRVIFNGRDFWGWHYLLKIFSELIKKLGIDHIRLEIDHVHLQGDKVDIHGTLRNHIGDFIFVHHTTHFLVKIDGRWFIRSVKIR,2.15
21,HEIDEWSEEWKHELIHNLRTGDEHRLKELADPHTRIIIDGREIHGMDFALKLIHKRVMEMRHKEFHIRRIDHQGEKIVMDVEVRVNFNGREDSVNFRIISEKFNGRWIIHYITLI,1.49
22,SELEEILKIARRFFEIVMRTGDPRDIERLLDPNAKLIIDGQEIHGREKMSNTFEEMVRRYDVVKSIEDKDWKIVNGRVDLDITLNGRVDGKDISTRVIIHVEKINGRWFMREVNIE,2.14
23,SEEERTAEKLMRDWLKNWMTGNEEIIKELADPNVKLLVGDKEMHGMEELSRFLKELRIHDSDVRDIRLKSINGVLHIESDGRLKGEFNGQHIDTRTVVRLDVHKFDGRWHLKSIEVEIR,1.95
24,SEHDKVLRELINLLWEALATGDFDQLHKLLDPHVKLDIGEWHSHGRESFIKNWLDDIRRVKNVRYELRHMDVINGQAHLDIHESYDGVRYDSELIIFIIDGKIHEITVHIR,0.83
25,HEDDELLRQNVKVLLDMVETGDEHTLENMLDPHVRFEAENHHHHGRENLIRALKELLTRLGVKHWRSFEVERIDIQGDFIFLDTVFIMEVDGRKRKIKIHIVARKINGRWLIESIRLD,1.48

row,Sequence,protease stability score
1,TEEEEYLRKLTKDFIEAFLTGNWKEVARLLDPHTRLHVGEFEIHGREEMMKFMIELITRAGIKHQHIKSFETRIINGVVFLHVHMIVIVNGRNIERRLHVLFVKIDGRWTIEEVSEEHE,1.46
2,DERDEHAHHFFELLLKMWETGDEHELIKFFDPDPRFIYNGKELHGREIAEEFIKEWRVHDMRVKRINVQGEKVIFDGIMDGEFNGKRIFIETHIYMTKVNGKWRTKFIEFN,1.42
3,DESQRDAHHASELVELVEKTGDWKMFEKLLDPHVRLQVGDKEFHGRHEAMRWIRETLERLGIDHREVRIEHIEFIGDKMIIHGEIILRFNGVTITHEEEFIVKKINGKWRMHEIRVR,1.29
4,SEDEEFSKEATETILRVIHTGDWDMIKDLADPNARIHVGNYNSWGREEVMRVIRELFEVLGIKHLIFTHVEIDVIDGVVHSIIHGYEEVGDKTIETHIDIVSKKIDGRWRLQRIEIHHR,1.29
5,DEEHRHAEEILKDLQKALITGDEHNMMNLLDPHVRVDFDGVEIIGRELWVELFRTLKKELGITRFDIHLHTHDMKIFDGRVTLDTRLHLHYNGRTEERRVIIYVTKVNGRWHIESMEIK,1.82
6,SEHEEDFKKATHEILEIWETGDEHRMSEYLDPNTRLSIDGKNIHGREKVEEILRRHWERLGIDHLRIKDLRVHTIDGRMHLDILVRFHYNGVTIDVHLHFNLIKIDGKWYIRSILEIDR,0.418
7,DEIEHLIRRIMEEIVHVFETGDEEKLEELMDPNTIFIIGDKRYVGREAVDVLLRRADVMTRFHIKSMRTVGDKIDLNTSIHVHFDGVHREIDTHVIARKVDGRWHWDSVRVE,1.2
8,SEEEELEERLTRYWLHAFWTGDWEHLKEMADPDARHRLHFENHTESVHGREYLVLIYVRIIRNLGFKHLEIDHVRVVDGVFRIHGILEVNGRKQRVHIIVVIVNGRLRELVLIFG,1.41
9,SDKDKEFEKLFREYLRDLLTGDEESLRRLIDPNARFSYEVGDKTEERHGREEAVRWIIEIRIHSFRLRNSTYIGDKMHLEVESDGQYDGKRRFTEVHIEIILINGRVHEVHVWYV,1.01
10,DEDEKMAREFVELWVHLLSTGNEDLEKHLVDPHVRVDINGQEIHGRNHLITFLIQIKNLTFEFRHVRITVVGDKIQVHIHGIVQVNGQWREVMIDFEAEKINGRWLQKQFHVKIH,1.96
11,SELEHDARNAEHWFEETFRTGDEEDRERLLDPHVLVEFNGREYIGWHVFQKFFNDLGVDHMEVRIHDSKVFNGRVHLDGELTIRQGDKLIRSHVHLILTKVDGRWRMREIRIH,1.73
12,DDEKARQQVREFIRAMETGDEDSMVQQLDENAHVHIGDHVWRGREQARNAFKEFVKQFDRIEVKRVEYRNGDVVIDAVANVNGVRVRIIFKIHIHNGRIKNLRIEYRDEEEKKQLDG,2.29
13,SEEHHHYSELMHQLTEWMLTGNFEEWARYADPNTRARIDIDGRRLEVHGREEMMRVLKEHRKLMGVDHIEVRDRHVFNGRNELIFILHQGDKERHSHITIVVINGQIKEVDIILR,1.61
14,EEKEEIDRREMKRFMKAFETGDEHELKELFDPHARVHVGDKVHIGRHNFLRWFKEWIEKYKNVRIELDDVEYQGEKLHLDLTVEINGRRTTQDLVIYKIDGRWLFKNIHVH,0.607
15,DEDTRDAEHISRMMLHAFITGDERLIEKNADPDTRIDVNGVDYHGREEMVKLFKRWLDELGVNHMEIKETTTHVYDGRVEVVLHLHVDYNGRRHHLIIIIINDKFDGQWRIRSLEFEER,1.37
16,SEEKEIAERFIEMALQVWLTGDERSMVDMVDPHVLNIVGDKEHHGREILLKFLHDFKERFPNVRVKHRDVHIDLQGDKMEVRIDGRIHFDGKQFRLEIIIITTKIDGRWRVTHWEVRIE,2.19
17,DEEHHELHKMFEEMINKWITGDWEYIVKLLDPHVKLEVGDKRHHGWKQYVLFLEEFMREFKNATIKIHDVTHVDGVVIINMKFHFNGKDIDTTLYLHIVNGRLHDERIEVE,1.74
18,DDTEDLATELSKIIRTVLRTGDWHTLRELADPNMRLNVNGQERHGMDLVREIHLNAGWQRVTVIIRHLHIDENEMHLETETRYDGQKHRVHVHVKKINGRWVIDFIIIH,1.09
19,SDDEEEVLRLMDHILHALWTGDWKHLEENMDPNVRSHINGQDVHGMERVVEFILRELKELRFEHLHIEHVEIIGNKATLHYRVDGHINGRRINRRVHLEVTMVNGRVKQVIFFNE,2.08
20,DEEDEYYNMALEHFVKTILTGNWKRFKKLADPHVRMEIDGREHHGREEATKVFNRFDHIKNFDFRDIELQGEKIEVHGELHGTINGKDVHTSFHIIMYKVNGKWEEKEVKFQ,1.28
21,SEIEHVVKRAIKIFIEVLETGDWELMWRLLDPHVRIEVGNKEKHGRHTIEEMIRRVDHIHINERQIHDIEIQGDKVHLHIHLNVEERVGDKRLNFEFELHIIAEKVNGRWIVRSVTIK,1.62
22,TEEEEHIRRLAEELMHNIRTGDEDTLVDLFDPDTKLHVHQGDKEIVFHGMEEIFDWWEKLLSEIRIEIRIRSIKYIGDKAHVHTEVIWRFNGREHRIESEIEFVLINGKVERIHISFI,2.27
23,SEEQHHVEKVLWDFSHALMTGDWETVEDLVDPNVRIHINGKDFHGREEFHRLVREIRVHVEINLKSVEHIDGQATADTDVIVHLDVGDKQIDRRTRTEVIQQKFDGKWLIHTIIHR,0.956
24,DEHEERLEHWAEVIIRSWITGDESLFRHLFDPHVRTEVNGVERHGRDEAVKMERLIREHLGVKHEEIKDYHVQGDKIHVDSRVDVNGVKINTRIHVLVVNGRIKEVRFEFD,0.841
25,DEDERHFEIWFKLFIHLYLTGNEETLRHLADPNVRTVYNGRDFHGWDEMVRIHHEMFDFYKGLRVEKVNVESVEIFDGRVLILLRIRVLVNGRTTDDHIHVEAKKIDGQWIIESVDFR,1.65
